{"source": "patent US20230192818A1", "about": "(TWIST BIOSCIENCE, published 2023)", "key": {"[1]": {"molecular_target": "T1, Antibody 178-08_His 501.V2 (27079) (SARS-CoV-2, UniProt P0DTC2 16-685)", "assay": "SPR (Carterra)"}, "[2]": {"molecular_target": "T1, Antibody 178-08_His 501.V2 (27079)", "assay": "SPR (Carterra)", "remark": "listed apart in the source"}}, "note": "Read-outs that look alike come from different tables or passages of the source.", "data": [{"binder": "3-31 (Fc fusion, also called Antibody 3-31) EVQLVESGGGLVQPGGSLRLSCAASGSTFSINAMGWFRQAPGKEREFVAGITSSGGYTNYADSVKGRFTISADNSKNTAYLQMNSLKPEDTAVYYCAADGVPEYSDYASGPVWGQGTLVTVSS", "values": [{"measurement": "Kd", "setting": "[1]", "result": 96.7, "unit": "µM"}, {"measurement": "Kd", "setting": "[2]", "result": 96.7, "unit": "µM"}]}]}
